Common to all, as to assay: cell_activity; endogenous locus, 293H
The target in series [1] is T1, SCOH-SH13 (artificial).
T1 chain: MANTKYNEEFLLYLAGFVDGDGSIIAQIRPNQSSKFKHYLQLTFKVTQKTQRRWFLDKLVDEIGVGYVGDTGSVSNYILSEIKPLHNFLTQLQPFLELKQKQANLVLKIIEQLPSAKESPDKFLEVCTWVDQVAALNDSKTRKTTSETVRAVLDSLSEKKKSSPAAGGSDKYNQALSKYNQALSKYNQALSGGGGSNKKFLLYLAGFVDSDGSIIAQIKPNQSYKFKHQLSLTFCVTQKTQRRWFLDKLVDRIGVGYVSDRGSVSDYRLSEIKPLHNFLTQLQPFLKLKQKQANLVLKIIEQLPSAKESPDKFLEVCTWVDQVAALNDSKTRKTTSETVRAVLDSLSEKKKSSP
The protocol: (§1) Human embryonic kidney 293H cells (Invitrogen) were plated at a density of 1×10⁶ cells per 10 cm dish in complete medium (DMEM supplemented with 2 mM L-glutamine, penicillin (100 UI/ml), streptomycin (100 μg/ml), amphotericin B (Fongizone) (0.25 μg/ml) (Invitrogen-Life Science) and 10% FBS). The next day, cells were transfected with 3 μg of single-chain meganuclease expression vector using Lipofectamine 2000 transfection reagent (Invitrogen) according to the supplier's protocol. After 2 to 6 days of incubation at 37° C., cells were trypsinized and genomic DNA extraction was performed with the DNeasy blood and tissue kit (Qiagen) according to the supplier's protocol.
(§2) Human embryonic kidney 293H cells were transfected with a plasmid expressing a single-chain safe harbor meganuclease. After 2 to 6 days of incubation at 37° C., genomic DNA was isolated and PCR was used to amplify the genomic sequence surrounding the meganuclease target site. Sequences were then analyzed for the presence of insertions or deletions events (InDel) in the cleavage site of each safe harbor target.

In series [2] the target is T2, SCOH-SH8 (artificial).
T2 chain: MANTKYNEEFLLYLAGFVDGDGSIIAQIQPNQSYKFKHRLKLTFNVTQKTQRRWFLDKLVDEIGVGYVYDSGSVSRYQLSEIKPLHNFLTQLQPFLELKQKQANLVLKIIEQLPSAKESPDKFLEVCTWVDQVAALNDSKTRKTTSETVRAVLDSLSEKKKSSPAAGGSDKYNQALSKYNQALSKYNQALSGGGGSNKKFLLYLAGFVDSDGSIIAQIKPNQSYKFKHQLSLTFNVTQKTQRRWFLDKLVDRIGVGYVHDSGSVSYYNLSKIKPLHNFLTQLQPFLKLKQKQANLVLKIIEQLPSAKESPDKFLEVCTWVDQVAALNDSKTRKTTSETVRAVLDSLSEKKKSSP
The procedure:
as §1, §2

Series [3] concerns the target T3, SCOH-SH6-b11-G2.2_BQY (artificial).
T3 chain: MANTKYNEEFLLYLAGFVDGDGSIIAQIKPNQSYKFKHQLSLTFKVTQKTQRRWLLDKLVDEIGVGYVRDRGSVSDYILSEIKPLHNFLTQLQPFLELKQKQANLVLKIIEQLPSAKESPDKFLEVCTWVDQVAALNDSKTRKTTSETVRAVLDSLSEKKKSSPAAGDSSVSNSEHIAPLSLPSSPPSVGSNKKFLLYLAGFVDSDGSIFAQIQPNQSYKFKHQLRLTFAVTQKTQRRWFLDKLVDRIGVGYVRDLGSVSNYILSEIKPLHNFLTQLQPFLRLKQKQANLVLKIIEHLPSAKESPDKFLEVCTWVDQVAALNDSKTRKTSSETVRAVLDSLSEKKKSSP
The procedure: as §1, §2

For series [4], the target named is T4, QCSH61-H01d (QC-SH6-H01_V2_7E_70R75D) (artificial).
T4 chain: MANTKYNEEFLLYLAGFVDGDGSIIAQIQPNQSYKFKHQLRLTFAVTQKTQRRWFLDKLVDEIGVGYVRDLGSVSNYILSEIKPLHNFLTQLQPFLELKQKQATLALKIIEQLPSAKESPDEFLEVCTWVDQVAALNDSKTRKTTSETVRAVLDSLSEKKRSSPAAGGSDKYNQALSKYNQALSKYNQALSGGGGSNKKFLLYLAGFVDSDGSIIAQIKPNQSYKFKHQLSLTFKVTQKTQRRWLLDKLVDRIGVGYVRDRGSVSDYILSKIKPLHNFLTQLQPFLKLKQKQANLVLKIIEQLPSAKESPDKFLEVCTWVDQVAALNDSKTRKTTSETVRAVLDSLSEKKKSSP
The procedure: as §1, §2

For series [5], the target named is T5, QCSH61-H01b (QC-SH6-H01_7E) (artificial).
T5 chain: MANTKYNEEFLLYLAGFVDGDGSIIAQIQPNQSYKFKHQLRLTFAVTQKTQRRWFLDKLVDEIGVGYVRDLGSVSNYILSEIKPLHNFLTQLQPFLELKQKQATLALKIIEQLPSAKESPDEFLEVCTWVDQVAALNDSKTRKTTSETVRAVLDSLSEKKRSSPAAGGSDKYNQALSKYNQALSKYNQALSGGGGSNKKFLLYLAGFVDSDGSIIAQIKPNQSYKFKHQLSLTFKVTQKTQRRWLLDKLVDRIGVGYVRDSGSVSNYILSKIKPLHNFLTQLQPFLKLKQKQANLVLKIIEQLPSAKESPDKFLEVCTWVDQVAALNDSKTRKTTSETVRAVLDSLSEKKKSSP
The procedure:
as §1, §2

Series [6] has as its target T6, QCSH61-H01a (SCOH-QCSH6-H01) (artificial).
T6 chain: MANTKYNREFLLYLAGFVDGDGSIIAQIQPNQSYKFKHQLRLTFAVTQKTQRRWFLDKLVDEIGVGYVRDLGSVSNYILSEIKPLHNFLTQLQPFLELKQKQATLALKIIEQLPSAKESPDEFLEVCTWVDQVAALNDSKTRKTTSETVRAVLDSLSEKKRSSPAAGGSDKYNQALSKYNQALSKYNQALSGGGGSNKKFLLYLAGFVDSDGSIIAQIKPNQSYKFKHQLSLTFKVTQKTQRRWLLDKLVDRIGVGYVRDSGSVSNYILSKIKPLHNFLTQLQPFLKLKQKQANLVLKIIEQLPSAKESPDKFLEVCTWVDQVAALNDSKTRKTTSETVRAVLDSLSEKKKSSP
The protocol: as §1, §2

Series [7] addresses T7, SCOH-SH6-b12-G2_BQY (artificial).
T7 chain: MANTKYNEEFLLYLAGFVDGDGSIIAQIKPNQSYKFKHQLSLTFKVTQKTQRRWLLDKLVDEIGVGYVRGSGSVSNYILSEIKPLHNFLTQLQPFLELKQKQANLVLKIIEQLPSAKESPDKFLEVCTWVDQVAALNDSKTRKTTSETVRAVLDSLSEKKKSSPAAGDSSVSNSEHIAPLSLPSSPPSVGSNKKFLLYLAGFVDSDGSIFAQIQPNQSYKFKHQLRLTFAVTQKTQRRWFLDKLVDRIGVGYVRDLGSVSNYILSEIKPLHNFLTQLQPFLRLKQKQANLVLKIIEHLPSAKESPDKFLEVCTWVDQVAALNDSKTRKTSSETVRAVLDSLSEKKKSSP
The procedure:
as §1, §2

Series [8] has as its target T8, SCOH-SH18-b11-C.2 (artificial).
T8 chain: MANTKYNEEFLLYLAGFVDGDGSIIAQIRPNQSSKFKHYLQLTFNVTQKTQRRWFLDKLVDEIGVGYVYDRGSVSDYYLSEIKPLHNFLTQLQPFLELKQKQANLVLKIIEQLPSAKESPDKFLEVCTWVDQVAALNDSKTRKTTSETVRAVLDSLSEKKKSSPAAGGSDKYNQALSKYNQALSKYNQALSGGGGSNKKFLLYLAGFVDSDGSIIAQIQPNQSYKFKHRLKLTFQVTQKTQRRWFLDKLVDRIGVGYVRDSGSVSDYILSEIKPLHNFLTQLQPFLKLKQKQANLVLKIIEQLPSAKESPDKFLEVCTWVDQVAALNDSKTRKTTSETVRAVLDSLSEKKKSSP
The procedure:
as §1, §2

B1: SH13 target (dsDNA)
DNA 1: ATTACACTCTTTAAGTGATTTTAA
DNA 2: TTAAAATCACTTAAAGAGTGTAAT
With B1, in series [1], the activity came out at 1.5 % InDels.

B2: SH8 target (dsDNA)
DNA 1: ACAATCTGAGGTAAGTAATACTGA
DNA 2: TCAGTATTACTTACCTCAGATTGT
On to B2, for which the activity in series [2] is 0.5 % InDels.

B3: SH6 target (dsDNA)
DNA 1: TTAATACCCCGTACCTAATATTGC
DNA 2: GCAATATTAGGTACGGGGTATTAA
On to B3, for which the activity in series [3] is 3 % InDels; in series [4], 3.5 % InDels; in series [5] it was 1.5 % InDels; in series [6], 0.6 % InDels; in series [7], 1 % InDels.

B4: SH18 target (dsDNA)
DNA 1: CTTACCCCACGTACCACAGACTGT
DNA 2: ACAGTCTGTGGTACGTGGGGTAAG
The molecule B4 gave an activity in series [8] of 1.2 % InDels.

These data come from US20110239319, “Use of Endonucleases for Inserting Transgenes Into Safe Harbor Loci” (published 2011).
